Measured values from US10184137B2, “Method of producing isoprene monomer” (AJINOMOTO CO., INC., priority 2014, dated 2019).
“And” between values parts separate entries of the source, which are not always exact repeats. Equal entries are not always repeated.

Assays:
[1] = biological target: Nitrosopumilus maritimus mevalonate kinase (nmr), wild type, SEQ ID NO:9, N-terminal His-tag (Nitrosopumilus maritimus, UniProt A9A427); assay: Examination of product inhibition on nmr-derived mevalonate kinase; type: biochemical; settings: 1 mM mevalonate as substrate, 50 mM ATP
[2] = substrate: Nc1ncnc2c1ncn2[C@@H]1O[C@H](COP(=O)(O)OP(=O)(O)OP(=O)(O)O)[C@@H](O)[C@H]1O; assay: purified protein, by the assay type; type: biochemical, Methanosarcina mazei; settings: other: mma, 5 mM potassium mevalonate, pH 7.6, 30° C., Lineweaver-Burk plot
Procedure: (§1) Each obtained plasmid was used for transformation of E. coli BL21(DE3). […] When OD600 reached approximately 0.5, 0.1 mM IPTG (for cva, mma, nmr, and sce) or 1 mM (for mcl and mpd) of IPTG was added, and then the mixture was kept at 20° C. overnight to induce the target protein. Harvested cells were suspended in buffer solution A (50 mM sodium phosphate, 0.3 M NaCl and 20 mM Imidazol), and then the cells were disrupted with an ultrasonic disruptor (TOMY: UD-201). […] After centrifugation (28,000×g, 30 min), the supernatant was adsorbed onto His-Trap HP (GE Healthcare) to elute the target protein by linear concentration gradient of Imidazol (final concentration 0.5 M). Obtained protein was dialyzed by using an external solution composed of 20 mM Tris-HCl (pH 8.0) containing 1 mM DTT and 50 mM NaCl. Dialyzed protein was designated as purified enzyme. Protein quantity was measured with Bio-RAD protein assay kit and BSA standard condition.
(§2) Decrease in absorbance at 340 nm at 30° C. was measured to determine the enzyme activity. […] Km value was calculated by Lineweaver-Burk plot.
(§3) Measured activity of each enzyme (JABS/min) was presented on Table 9 for the calculation of apparent Km value (Km app.) of each enzyme. Table 10 presents Km app., Vmax, molecular weight of the enzyme protein, protein concentration in the enzyme solution and calculated kcat.

[3] = substrate: Nc1ncnc2c1ncn2[C@@H]1O[C@H](COP(=O)(O)OP(=O)(O)OP(=O)(O)O)[C@@H](O)[C@H]1O; assay: purified protein, by the assay type; type: biochemical, Nitrosopumilus maritimus; settings: other: nmr, 5 mM potassium mevalonate, pH 7.6, 30° C., Lineweaver-Burk plot
Procedure: as §1, §2, §3

[4] = substrate: Nc1ncnc2c1ncn2[C@@H]1O[C@H](COP(=O)(O)OP(=O)(O)OP(=O)(O)O)[C@@H](O)[C@H]1O; assay: purified protein, by the assay type; type: biochemical, Saccharomyces cerevisiae; settings: other: sce, 5 mM potassium mevalonate, pH 7.6, 30° C., Lineweaver-Burk plot
Procedure: as §1, §2, §3

[5] = substrate: Nc1ncnc2c1ncn2[C@@H]1O[C@H](COP(=O)(O)OP(=O)(O)OP(=O)(O)O)[C@@H](O)[C@H]1O; assay: purified protein, by the assay type; type: biochemical, Corynebacterium variabile; settings: other: cva, 5 mM potassium mevalonate, pH 7.6, 30° C., Lineweaver-Burk plot
Procedure: as §1, §2, §3

[6] = substrate: Nc1ncnc2c1ncn2[C@@H]1O[C@H](COP(=O)(O)OP(=O)(O)OP(=O)(O)O)[C@@H](O)[C@H]1O; assay: purified protein, by the assay type; settings: other: mcl, 5 mM potassium mevalonate, pH 7.6, 30° C., Lineweaver-Burk plot
Procedure: Each obtained plasmid was used for transformation of E. coli BL21(DE3). […] When OD600 reached approximately 0.5, 0.1 mM IPTG (for cva, mma, nmr, and sce) or 1 mM (for mcl and mpd) of IPTG was added, and then the mixture was kept at 20° C. overnight to induce the target protein. […] After centrifugation (28,000×g, 30 min), the supernatant was adsorbed onto His-Trap HP (GE Healthcare) to elute the target protein by linear concentration gradient of Imidazol (final concentration 0.5 M). Obtained protein was dialyzed by using an external solution composed of 20 mM Tris-HCl (pH 8.0) containing 1 mM DTT and 50 mM NaCl. Dialyzed protein was designated as purified enzyme. Protein quantity was measured with Bio-RAD protein assay kit and BSA standard condition.
Decrease in absorbance at 340 nm at 30° C. was measured to determine the enzyme activity. JASCO Corporation's spectrophotometer (V-650) was used in this study. […] Km value was calculated by Lineweaver-Burk plot.

[7] = system: mevalonate kinase; assay: Examination of product inhibition on each mevalonate kinase (absorbance at 386 nm, PMK addition); type: biochemical; settings: 1 mM mevalonate as substrate; in words
Procedure: When decrease in absorbance stopped, purified PMK was added to measure further decrease in absorbance at 386 nm.
FIG. 18 presents the SDS-PAGE profile of the purified PMK. […] Then, absorbance decreased further and finally absorbance at 386 nm decreased to 0.3 in all reaction systems. Therefore, it is inferred that mevalonate is converted into diphosphomevalonate via phosphomevalonate by adding PMK to each MVK.

[8] = system: mevalonate kinase; assay: Measurement of activity and Km value of purified mevalonate kinase (PK/LDH coupled, 340 nm); type: biochemical
Procedure: as §1
(§4) Decrease in absorbance at 340 nm at 30° C. was measured to determine the enzyme activity. JASCO Corporation's spectrophotometer (V-650) was used in this study. Millimolar extinction coefficient of NADH used in this study was 6.22 mM^−1 cm^−1. […] Km value was calculated by Lineweaver-Burk plot.
as §3
Activity was indicated by dABS/min when 10 μl of each enzyme was added to 1 ml of reaction solution.

[9] = system: mcl-derived mevalonate kinase; assay: Effect of IPP and low-concentration DMAPP on mcl-derived mevalonate kinase activity
[10] = system: mevalonate kinase; assay: Inhibition of each mevalonate kinase by DMAPP, GPP, FPP or DPM; type: biochemical
Procedure: Since GPP and FPP solutions contain methanol, methanol which was needed to keep the same methanol level at the addition to the reaction system was added to the reaction solution, which was designated as control.
Respective effect of the added 5 mM DMAPP, 0.1 mM GPP, and 0.1 mM FPP on the activity of each enzyme was measured. […] Contrarily, mcl-derived enzyme was activated by 5 mM DMAPP and its activity increased by 20% from that of the control.
Activity when 10 μl of each enzyme was added to 1 ml of the reaction system was represented by dABS/min
Effect of 1 mM diphosphomevalonate (DPM) on each enzyme was also studied.

[11] = system: mevalonate kinase; assay: Expression analysis and activity confirmation of His-tagged mevalonate kinases from pET-21a(+) and pET-28b(+); type: biochemical; settings: His-spinTrap eluate after dialysis, 10 μl enzyme solution
Procedure: Each obtained plasmid was used for transformation of E. coli BL21(DE3). […] When OD600 reached approximately 0.5, IPTG was added to the solution to final concentration of 1 mM. It was then cultured overnight at 20° C. Harvested cells were suspended in the buffer solution consisting of 50 mM sodium phosphate, 0.3 M NaCl and 20 mM Imidazol. Then the cells were disrupted with an ultrasonic disruptor (TOMY: UD-201, output level=3.5). After centrifugation (20,000×g, 20 min), disrupted cells were adsorbed to His-spinTrap (GE Healthcare). After washing with the same buffer solution, protein was eluted with the buffer solution consisting of 50 mM sodium phosphate, 0.3 M NaCl and 0.5 M imidazole (pH7.5). Eluate was dialyzed overnight at 4° C. with the external solution composed of 20 mM Tris-HCl (pH7.5) and 50 mM NaCl. Then, enzyme activity of each eluate in the internal dialysis solution was measured.
Activity of the internal dialysate (about 0.2 ml each) was measured with the 10 μl of enzyme solution (Table 8). Enzyme expression level was compared on activity basis between pET-21a(+) and pET-28b(+). […] It is inferred that expression level is higher in pET-28b(+). Therefore, purified enzyme expressed in pET-28b(+) was used in the further examinations.
Values were presented by decrease in absorbance per unit time per 10 μl in the enzyme reaction measurement system (dABS/min/10 μl).
as §4

In the case of `C[C@@](O)(CCOP(=O)(O)O)CC(=O)O` [phosphomevalonate, mevalonate-5-phosphate], the “Product inhibition” value [1] is reported as “may cause product inhibition”.

B1: Methanosarcina mazei mevalonate kinase (mma), wild type, SEQ ID NO:12, N-terminal His-tag (Methanosarcina mazei Go1) (protein)
chain: MVSCSAPGKIYLFGEHAVVYGETAIACAVELRTRVRAELNDSITIQSQIGRTGLDFEKHPYVSAVIEKMRKSIPINGVFLTVDSDIPVGSGLGSSAAVTIASIGALNELFGFGLSLQEIAKLGHEIEIKVQGAASPTDTYVSTFGGVVTIPERRKLKTPDCGIVIGDTGVFSSTKELVANVRQLRESYPDLIEPLMTSIGKISRIGEQLVLSGDYASIGRLMNVNQGLLDALGVNILELSQLIYSARAAGAFGAKITGAGGGGCMVALTAPEKCNQVAEAVAGAGGKVTITKPTEQGLKVD
Molecule B1 has a Km [2] of 687 ± 9.3 µM.

B2: Nitrosopumilus maritimus mevalonate kinase (nmr), wild type, SEQ ID NO:9, N-terminal His-tag (Nitrosopumilus maritimus SCM1) (protein)
chain: MKSKASAPGKVILFGEHFVVYGVKAILCAINKRIAVTAEKIDERKISIKSNIGHLELEPNKPISEINSPLKPFYYLANKIIQDKNFGIKIDVESEIPLGVGLGSSSACCVAGAAAISNLFENNSKEEILKLAIEAEKTIFQNTSGADCTVCTFGGLMEYDKENGFSKIESEPNFHLVIANSNVEHSTESVVAGVRKFKKNNEAEFSKLCKDESHLIENVLELLKENNIRELGERVIKNQEYLERIGISNAKLREMIQTGQNSSFGAKITGAGGGGCIFALTDESNLENTIKEFKEKNHECFSVKIDFKGLDTF
In the case of B2, the Km [3] is reported as 1006 ± 20^ μM.

B3: Saccharomyces cerevisiae mevalonate kinase (sce, ERG12), wild type, NP_013935.1, N-terminal His-tag (Saccharomyces cerevisiae S288C) (protein)
chain: MSLPFLTSAPGKVIIFGEHSAVYNKPAVAASVSALRTYLLISESSAPDTIELDFPDISFNHKWSINDFNAITEDQVNSQKLAKAQQATDGLSQELVSLLDPLLAQLSESFHYHAAFCFLYMFVCLCPHAKNIKFSLKSTLPIGAGLGSSASISVSLALAMAYLGGLIGSNDLEKLSENDKHIVNQWAFIGEKCIHGTPSGIDNAVATYGNALLFEKDSHNGTINTNNFKFLDDFPAIPMILTYTRIPRSTKDLVARVRVLVTEKFPEVMKPILDAMGECALQGLEIMTKLSKCKGTDDEAVETNNELYEQLLELIRINHGLLVSIGVSHPGLELIKNLSDDLRIGSTKLTGAGGGGCSLTLLRRDITQEQIDSFKKKLQDDFSYETFETDLGGTGCCLLSAKNLNKDLKIKSLVFQLFENKTTTKQQIDDLLLPGNTNLPWTS
notes: His-tag (N); made in house; host or cells: E. coli BL21(DE3)
Work on B3 yielded a Km [4] of 464 ± 7.6 µM.

B4: Corynebacterium variabile mevalonate kinase (cva), wild type, SEQ ID NO:3, N-terminal His-tag (Corynebacterium variabile) (protein)
chain: MAPHVGHGQTVAKIILFGEHSVVYGHPAIAMPLRTLRMIARVEPTDGPGTLSGLGWTGPITEAPARFSSIVKAAEVASDFAGHPGAGLNISTESEFPPERGLGSSAAAAGAVIRAVLDAFDTPATPRELFDLTQEAETVAHGRPSGLDAVATSAEAPVHFQAGQATDLEFSPDAWIVIADSGVEGSTRETVGHVRGRFEAEPDIITALLNRLGEITDEVVVDLRTGDVQGMGARMTEAHGILGQLGVSNTQLDALVTASLGAGALGAKLTGGGRGGCVIALAATEEDAENVEKALVDAGARGTWVHAPATGQMAGEVMQ
B4 was tested, and the Km [5] was 1347 ± 29^ μM.

B5: Methanosaeta concilii mevalonate kinase (mcl), wild type, SEQ ID NO:6, N-terminal His-tag (Methanothrix soehngenii GP6) (protein)
chain: MTMASAPGKIILFGEHAVVSGTAALGGAIDLRARAIVQSLPGRILIETDDLSLRGFSLDLSTGEIRSASAAYATRYVSAVLKELGARDVRVMIESDIPPAAGLGSSASIVVATVAALNGHLGLELSQKEIAALSYRIEKEVQKGRGSPMDTALATYGGYQRIADDNQRLDLPPLEMVVGYTRLPHDTFSLVEKVQLLKERYPDLVGPIFQAIGAISERAAPLIREQRLKDLGELMDINHGLLEALGVGSRELSELVYAARNTGGALGAKLTGAGGGGCMIALPGMAGKDALLVALRQARGMAFAAMMGCEGVRLEVA
Molecule B5 has a Km [6] of 74 ± 1.4 µM.

B6: mcl: mevalonate kinase derived from Methanosaeta concilii (SEQ ID NO:6), His-tagged purified enzyme (protein, listed as Methanosaeta concilii)
chain: MTMASAPGKIILFGEHAVVSGTAALGGAIDLRARAIVQSLPGRILIETDDLSLRGFSLDLSTGEIRSASAAYATRYVSAVLKELGARDVRVMIESDIPPAAGLGSSASIVVATVAALNGHLGLELSQKEIAALSYRIEKEVQKGRGSPMDTALATYGGYQRIADDNQRLDLPPLEMVVGYTRLPHDTFSLVEKVQLLKERYPDLVGPIFQAIGAISERAAPLIREQRLKDLGELMDINHGLLEALGVGSRELSELVYAARNTGGALGAKLTGAGGGGCMIALPGMAGKDALLVALRQARGMAFAAMMGCEGVRLEVA
modifications: His-tag
For B6, the “course of decrease in absorbance at 386 nm until PMK addition” value [7] was “almost linear decrease in absorbance”, the “dABS/min at ATP 0.04 mM” value ([8]; ATP 0.04 mM, potassium mevalonate 5 mM, 10 μl enzyme in 1 ml, replicate values) was 0.06058 dABS/min and 0.06029 dABS/min and 0.05985 dABS/min and the “dABS/min at ATP 0.2 mM” value ([8]; ATP 0.2 mM, potassium mevalonate 5 mM, 10 μl enzyme in 1 ml, replicate values) was 0.1223 dABS/min and 0.1222 dABS/min (2×). The “dABS/min at ATP 1 mM” value ([8]; ATP 1 mM, potassium mevalonate 5 mM, 10 μl enzyme in 1 ml, replicate values) was 0.1584 dABS/min (2×) and 0.1585 dABS/min, the “affinity to mevalonate and ATP compared with the other enzymes” value ([8]; in words) was “higher affinity to mevalonate and ATP than the other enzymes” and the “dABS/min at mev 0.002 mM” value ([8]; potassium mevalonate 0.002 mM, ATP 5 mM, 10 μl enzyme in 1 ml, replicate values) was 0.02277 dABS/min and 0.02381 dABS/min and 0.02265 dABS/min. For the same molecule, the “dABS/min at mev 0.01 mM” value ([8]; potassium mevalonate 0.01 mM, ATP 5 mM, 10 μl enzyme in 1 ml, replicate values) was 0.08427 dABS/min and 0.0843 dABS/min and 0.08431 dABS/min, the “dABS/min at mev 0.04 mM” value ([8]; potassium mevalonate 0.04 mM, ATP 5 mM, 10 μl enzyme in 1 ml, replicate values) was 0.1675 dABS/min and 0.1677 dABS/min and 0.1671 dABS/min and the “dABS/min at mev 0.2 mM” value ([8]; potassium mevalonate 0.2 mM, ATP 5 mM, 10 μl enzyme in 1 ml, replicate values) was 0.2123 dABS/min (2×) and 0.2125 dABS/min. The “enzyme activity, Control (MeOH)” value ([9]; 70% methanol control for IPP) was 0.1594 dABS/min, the “enzyme activity, Control (H2O)” value ([9]; control for DMAPP) was 0.154 dABS/min and the “enzyme activity, Control” value ([10]; Table 11 control without terpenyl diphosphate (methanol added)) was 0.1482 dABS/min. For the same molecule, the “enzyme activity, Control” value ([10]; Table 12 control without DPM) was 0.1373 dABS/min, the “effect of 5 mM DMAPP on enzyme activity” value ([10]; in words) was “activated” and the “enzyme activity, pET21 system (C terminal Tag)” value [11] was 0.003 dABS/min/10 μl. For the same molecule, the “enzyme activity, pET28 system (N terminal Tag)” value [11] was 0.023 dABS/min/10 μl.
